To fix the notation:
T1: his-tagged human CDH6 extracellular region protein (hCDH6 ECD-his) (human, UniProt P55285 19-615)
T1 construct: also called Human CDH6-his; hCDH6-his; not shown: his tag
T1 sequence: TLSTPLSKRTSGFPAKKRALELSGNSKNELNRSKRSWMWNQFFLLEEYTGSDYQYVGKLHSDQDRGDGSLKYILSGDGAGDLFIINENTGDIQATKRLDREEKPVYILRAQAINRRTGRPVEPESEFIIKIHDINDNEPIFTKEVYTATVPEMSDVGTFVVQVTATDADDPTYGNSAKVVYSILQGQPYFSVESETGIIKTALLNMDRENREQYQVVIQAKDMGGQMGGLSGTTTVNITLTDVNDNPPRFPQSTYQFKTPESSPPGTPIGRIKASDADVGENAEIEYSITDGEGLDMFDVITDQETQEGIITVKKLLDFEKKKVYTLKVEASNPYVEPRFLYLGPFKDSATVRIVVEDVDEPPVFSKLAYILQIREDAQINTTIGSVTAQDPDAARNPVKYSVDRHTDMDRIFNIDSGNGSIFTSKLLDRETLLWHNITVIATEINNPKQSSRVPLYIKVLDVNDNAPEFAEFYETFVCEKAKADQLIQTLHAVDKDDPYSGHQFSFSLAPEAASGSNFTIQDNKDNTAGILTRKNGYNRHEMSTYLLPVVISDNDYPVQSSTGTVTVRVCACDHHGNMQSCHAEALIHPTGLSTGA

T2: human CDH6 with EC3 removed, on HEK293T cells (HEK293T-hCDH6-EC3 deletion) (human, UniProt P55285 54-790)
T2 construct: Signal peptide not removed here
T2 sequence: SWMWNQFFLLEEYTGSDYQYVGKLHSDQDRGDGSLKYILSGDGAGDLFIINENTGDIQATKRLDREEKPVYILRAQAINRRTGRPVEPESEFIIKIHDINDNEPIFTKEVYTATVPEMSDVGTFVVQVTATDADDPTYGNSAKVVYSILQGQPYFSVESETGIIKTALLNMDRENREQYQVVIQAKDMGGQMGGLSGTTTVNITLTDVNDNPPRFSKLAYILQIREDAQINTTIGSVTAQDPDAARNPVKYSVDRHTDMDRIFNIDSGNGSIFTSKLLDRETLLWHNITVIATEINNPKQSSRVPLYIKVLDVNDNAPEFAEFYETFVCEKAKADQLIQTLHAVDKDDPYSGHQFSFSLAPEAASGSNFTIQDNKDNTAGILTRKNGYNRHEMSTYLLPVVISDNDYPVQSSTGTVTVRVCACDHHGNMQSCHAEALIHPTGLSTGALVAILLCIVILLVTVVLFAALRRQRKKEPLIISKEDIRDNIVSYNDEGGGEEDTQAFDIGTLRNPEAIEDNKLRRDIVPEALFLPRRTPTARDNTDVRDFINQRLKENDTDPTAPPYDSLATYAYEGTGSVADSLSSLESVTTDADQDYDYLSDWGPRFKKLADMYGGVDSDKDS

B1: CHI-CDH6-2 (antibody, human IgG1, kappa, V domains shown)
VH: EVQLQQSGPELVKPGASVRISCKASGYTFTDYYMNWVKQSHGKSLEWIGDIDPNNANTTYNQKFKGKATLTVDKSSSTAYMELRSLTSEDSAVYSCASFGYDVEWFGYWGQGTLVTVSA
VL: QIVLTQSPALMSASPGEKVTMTCSASSSVSYMYWYQQKPRSSPKPWIYLTSNLASGVPARFSGSGSGTSYSLTISSMEAEDAATYYCQQWSSNPFTFGSGTKLEIKR
notes: also called chimeric antibody of murine CDH6-2
B2: CHI-CDH6-13 (antibody, human IgG1, kappa, V domains shown)
VH: DVQLQESGPGLVKPSQSLSLTCSVTGYSITKDSYWNWIRQFPGSKLEWMGFISYDGSRHYNPSLKNRISITRDTSKNQFFLQLNSVTTEDTATYYCARRDYADYWGQGTTLTVSS
VL: B1 VL with S14F, S26T, M32I, S75N, M77L, N93I, F95Y, S99G
notes: also called chimeric antibody of murine CDH6-13
B3: CHI-CDH6-10 (antibody, human IgG1, kappa, V domains shown)
VH: QVQLQQPGAELVKPGTSVKMSCKASGYTFTSDWIAWVKQRPGQGLEWIGDIYPGSGRTHNNEKFNFKATLTVDTSSNTAYMQLSSLTSEDSAVYFCARPMLGRFDYWGQGTTLTVSS
VL: DIVLTQSPASLAVSLGQRATISCRASESVSIHGTHLMHWYQQKPGQPPKLLIYAASNLESGVPARFSGSGSETDFTLNIHPVEEEDAATYFCQQSFEDPFTFGSGTKLEIKR
notes: also called chimeric antibody of murine CDH6-10
B4: CHI-CDH6-6 (antibody, human IgG1, kappa, V domains shown)
VH: EVQLQQSGPELVKPGDSVKMSCKASGYTFTDYYMAWVRQSHRKSLEWIGYIFPNSGGTDYSQKFKGKATLTVDKSSSTVYMELHSLTSEDSAVYYCARELGADYGDYYAMDHWGQGTSVSVSS
VL: DIQMTQSPASLSASVGETVTITCRASENIDSYLAWYQQKQGKSPQLLVYSATLLADGVPSRFSGSGSGTQYSLKINSLKSEDVARYYCQHYYRTPPTFGSGTKLEIKR
notes: also called CHI-hCDH6-6; chimeric antibody of murine CDH6-6
B5: CHI-CDH6-8 (antibody, human IgG1, kappa, V domains shown)
VH: EVQLQQSGPELVKPGDSVKMSCKASGYTFTDYYMAWIKQNHGKSLEWIGYIYPNNGGTDYNQKFRGKATLTVDKSSSAAYMELHSLTSEDSAVYYCAREIGTLYGDYYAMDYWGQGTSVTVSS
VL: B4 VL with S50T, K79Q, R93S
notes: also called chimeric antibody of murine CDH6-8
B6: CHI-CDH6-9 (antibody, human IgG1, kappa, V domains shown)
VH: QVQLQQPGAELVKPGASVKLSCKASGYTFTGYWMHWVRQRPGQGLEWIGEINPNNGGTNCNEQFKNKATLTVDKSSSTAYMQLSSLTSEDSAVFYCTISFGNYLFFDVWGAGTTVTVSS
VL: DIQMTQSPASLAASVGETITITCQASENIYFSLAWYQQKQGKSPQLLIYNANTLEDGVPSRFVGSGSGTQYSMKINSIQPEDTATYFCDQTYDFPWTFGGGTKLEIKR
notes: also called chimeric antibody of murine CDH6-9
B7: CHI-CDH6-11 (antibody, human IgG1, kappa, V domains shown)
VH: QIQLQQSGPELVKPGASVRISCKASGYTFTDYYITWVKLRPGQGLEWIGWIYPGSVNIKYNEKFKGKATLTVDTSSSTAYMQLNSLTSEDSAVYFCARGGYSWFPYWGQGTLVTVSA
VL: NIVMTQSPKSMSMSVGERVTLSCKASENVHTYVSWYQQKPEQSPKLLFYGASTRNTGVPDRFTGSGSATDFTLTISSVQAEDLADYYCGQSYSYPYTFGSGTKLEIKR
notes: also called chimeric antibody of murine CDH6-11
B8: CHI-CDH6-7 (antibody, human IgG1, kappa, V domains shown)
VH: EVKLVESGGGLVKPGGSLKVSCAASGFTFSDHGMAWVRQAPGKGPEWVAFISNLAYSIYYADTVTGRFTISRENAKNTLYLEMSSLRSEDTAMYYCARVYVKWYFDVWGAGTTVTVSS
VL: B4 VL with Y49F, S50A, K79Q, R93S, P96L, S100A, I106L
notes: also called CH1-CDH6-7; chimeric antibody of murine CDH6-7
B9: CHI-CDH6-3 (antibody, human IgG1, kappa, V domains shown)
VH: QVQLQQPGAELVKPGASVKLSCKASGYTFTSYWIHWVKQRPGQGLEWIGEINPSNGVTNCNENFKSKATLTVDKSSSTAYMQLSSLTSEDSAVYYCTIPNLLWWYFDVWGAGTTVTVSS
VL: DIQMTQSPASLSVSVGETVTITCRASENIYSNLAWYQQKQGKSPQLLVYEATNLADGVPSRFSGSGSGTQYSLKINSLQSEDFGSYYCQHFWGTLWTFGGGTKLEIKR
notes: also called CH1-CDH6-3; chimeric antibody of murine CDH6-3
B10: CHI-CDH6-14 (antibody, human IgG1, kappa, V domains shown)
VH: QIQLQQSGPELVKPGTSVKISCKASGYTFTDNYINWVRQRPGQGLEWIGWIYPGTGNSYYNEKFKGKATLTVDTSSSTAYMQFSSLTSEDSAVYLCASSYGDSFDYWGQGTTLTVSS
VL: DIQMTQTTSSLSASLGNRVTISCRASQDIRNYLNWYQQKPDGTFKLLISYTSRLHSGVPSRFSGSGSGTDYSLTVSNLEPEDIATYYCQQYSQLPWTFGGGSRLEIKR
notes: also called CHI-hCDH6-14; CH1-CDH6-14
B11: CHI-CDH6-12 (antibody, human IgG1, kappa, V domains shown)
VH: EVNLVESGGGLVQPGDSLTLSCSASGFTFTDYYMSWVRQFPGKALEWLALIRNKANSYTTEYSASVKGRFTISRDNSQSILYLQMNALRAEDSATYYCARDSYYSHDGFAYWGQGTLVTVSA
VL: DIVLTQSPASLAVSLGQRATISCRASKSVSTSSYTYMHWYQQKPGQPPKLLIKFASYLESGVPARFSGSGSGTDFTLNIHPVEEEDAATYYCQHSREFPFTFGTGTKLEIKR
notes: also called CH1-CDH6-12; chimeric antibody of murine CDH6-12
B12: CHI-CDH6-4 (antibody, human IgG1, kappa, V domains shown)
VH: QVQLQQSGPELVKPGASVKISCKASGYAFSNFWMNWVKQRPGKGLEWIGWIYPGDGDTNYNGKFKDKATLTADKSSSTAYIQLSSLTSEDSAVYFCARLYDAWGFFDYWGQGTTLTVSS
VL: QIVLTQSPAIMSASPGQKVTITCSASSSVNYMHWYQQKLGSSPKLWIYDKSKLAPGVPARFSGSGSGTSYSLTISSMEAEDAASYFCHQWSSYPPMTFGGGTKLEIKR
notes: also called CH1-CDH6-4; chimeric antibody of murine CDH6-4
B13: CHI-CDH6-5 (antibody, human IgG1, kappa, V domains shown)
VH: QVQLQQSGAELVRPGTSVKMSCKAAEYTFTNYWIGWVKQRPGHGLEWIGDLYPGGDHANYNEKFEGKATLTADTSSSTAYMQLSSLTSEDSAIYYCARGMLTTGFDSWGQGTTLTVSS
VL: DIVMSQSPSSLAVSAGEKVTMSCKSSQSLFNSRTRKNYLAWYQQKPGQSPKLLIYWASTRESGVPDRFTGSGSGTDFTLTISSVQAEDLAVYYCKQSYYLRTFGGGTKLEIKR
notes: also called CH1-CDH6-5; chimeric antibody of murine CDH6-5

Positions count from the first letter of the chain named.

The target of the first assay is T1, his-tagged human CDH6 extracellular …. Put plainly: ELISA, coated antigen. As for the experimental part:
Human CDH6 protein (hCDH6 ECD-his, conventionally synthesized), monkey CDH6 protein (cynoCDH6 ECD-his, conventionally synthesized; the cynoCDH6 ECD sequence was derived from Uniprot #A0A2K5TW62 (19-615)), and murine CDH6 protein (mCDH6 ECD-his, conventionally synthesized; the mCDH6 ECD sequence was derived from Uniprot #P97326 (19-615)) were diluted with PBS to a final concentration of 1 μg/mL, and added to a 96-well ELISA plate at 100 μL/well. The plate was incubated at 4° C. overnight. The next day, the plate was washed 3 times with a plate washing solution (PBS+0.01% (v/v) Tween 20), and a blocking buffer (PBS+0.01% (v/v) Tween 20+2% (w/w) BSA) was added for blocking at room temperature for 2 h. The blocking buffer was discarded, and the plate was washed 3 times. The chimeric antibodies were diluted with 1% BSA+PBS (purchased from Cytiva, Cat. No. SH30264.01) and added to the 96-well plate at 50 μL/well. After incubation at 37° C. for 2 h, the plate was washed 3 times with a plate washing solution. […] The plate was incubated at 37° C. for 1 h and then washed 5 times with a plate washing solution. A TMB substrate (purchased from Seracare, Cat. No. 5120-0077) was added at 50 μL/well and incubated at room temperature for 10 min, then a stop solution (1.0 N HCl) was added at 50 μL/well. OD450 nm values were read using a microplate reader (Biotek). Analysis was performed by the GraphPad Prism software, data were fitted, and EC50 values were calculated. The chimeric antibodies tested all had strong binding to the human CDH6 protein, the monkey CDH6 protein, and the murine CDH6 protein.
As to B1, a half-maximal effect (EC50) was put at 27 pM and the “Max OD450” value was found to be 2.07 OD450.

B2: the EC50 is 9 pM and the “Max OD450” value was determined as 2.62 OD450.

In the case of B3, it took 25 pM to reach a half-maximal effect (EC50) and the “Max OD450” value stood at 2.03 OD450.

With B4, the response was half-maximal at 34 pM (EC50) and the “Max OD450” value was 2.18 OD450.

As for B5, the EC50 was 33 pM and the “Max OD450” value is 2.31 OD450.

B6: the concentration for a half-maximal effect (EC50) was determined as 16 pM and the “Max OD450” value is 2.58 OD450.

In the case of B7, it took 34 pM to reach a half-maximal effect (EC50) and the “Max OD450” value is 2.24 OD450.

For a further assay, the target named is T2, human CDH6 with EC3 removed, on HEK293T …. Put plainly: FACS, HEK293T-hCDH6-EC3 deletion cells. The source says: To confirm the binding epitope of the CDH6 antibody, the sequences after removal of these 5 regions were constructed into pcDNA3.1 vectors (purchased from Youbio, Cat. No. VT1001), and transfected into HEK293T cells (purchased from Cell Bank of Chinese Academy of Sciences, Cat. No. SCSP-502) to obtain 5 CDH6 truncated cell lines: HEK293T-hCDH6-EC1 deletion, HEK293T-hCDH6-EC2 deletion, HEK293T-hCDH6-EC3 deletion, HEK293T-hCDH6-EC4 deletion, and HEK293T-hCDH6-EC5 deletion.
The binding activity of the CDH6 chimeric antibodies to these 5 cell lines was assayed by FACS.
Turning to B8, the “Max MFI” value was 9060 MFI.

Consider B9, for which the “Max MFI” value is 689 MFI.

With B10, the “Max MFI” value came to 755 MFI.

On to B11, for which the “Max MFI” value is 70 MFI.

As to B12, the “Max MFI” value was found to be 15100 MFI.

Turning to B13, the “Max MFI” value is 12200 MFI.

Source of the values: patent US20260234242A1 (HAINAN SIMCERE ZAIMING PHARMACEUTICAL, published 2026).
